Assay results as given in the domain aggregation screens of Martell et al. (2025).

Experiment: soluble fraction after stress (log2 fold change); higher = more stays soluble; pooled small domains, quantitative proteomics
Details: stress: 75 degC
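Further: 20 min heating vs room temperature control held 20 min.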

Sequence	soluble fraction (log2)
HMRKKTYEIITDDLRRMIEAGLIRPGEKLGAIDQLAAKYRVGRSTVREALSHLKALGLVESRQGGGTYVTK	0.375
HMRKNVAGITPNVYGMGLKDAVYLLENAGYRVKVNGRGNVVRQSINSGTRIIKGQLIILDLD	-3.62
HMRKSNADALDGKTGIVKEEIKTGGYGYVGIDGDMWRSISESGEAIPAGTKVVVISHESIILTVKPA	-2.23
HMRKTLASTAYDSIKAGIVSGEINNNLLLSENTLAKILNMSRTPIREAIKRLEAESYLKSVDGVGLIVQE	-0.43
HMRKTLSQEAYEKIKQNLEDGVYQGYINGRQVARDLDIGFTPVREAFLQLQSEGLIRKEDNVGYFV	-0.107
HMRKTYHVDAYQDDKWWVLQVQEMPNAISQVKSLDQADEWIREAINIVSNEPEDSFDVVIIPV	-0.404
HMRKVTDTHELSSVVKSVIDQWEEKAAEYRAGKSGLLGFFVGEVMKKTGGAADPEAAKSLLQDRLD	0.0219
HMRKYEAVPASVVPAQIQEYVAKSNFPNQYIRKIERNKYTWEIELSNGLEIKFDRQFNVIGFD	-2.59
HMRLGQLQSVEEPKFIEVHSGKQGDIGEQTIVEYEIDAKYATGDATINLKLLFRDGLFEIYNFNFSSEALL	0.133
HMRLNIRTKNNYSYYTIIKDYTNLNGKRTTTIFEKLGNQQQVEERFGKVNTIENIKKYIEELNNE	-1.65
HMRLPAISYSFARKHGVVLRLDGDRPVASLREGADPAILIEVKRHLDGAMGVEKVSEAAFDQLLSTTYA	-1.53
HMRLPNGYGSITKLSGKRRKPFMVRITTGYDNEGKQLMSVLGYYATRTEALAVLAEYNKNPYNPI	-3.36
HMRLPNHYGSVVKLSGKRRRPFMVRGGVYGYDDRGYPQYVIVGYTETREQGLTMLAEYNRNP	-3.17
HMRLPVELTDREVEVLRLLAQAMSNGEIARELYIGEATVKTHVSNVLQKLGARDRVAAVVWAHRYGL	-2.08
HMRLSAADLQSYLKGMDYPASRQDLIAHARGHNAPEEAVATLEQFSDRTYRSAADVSVEFGRE	0.254
HMRLSPTMVETLIAMLNRNAYPAYENNSRTFASLEERGLIQPDIEGNWSLTDTGHQTALKLLK	0.463
HMRLSVRQRMSDVLGALKTQAFVEFTQLFRPQEGRMGVTVTFSAILELLREGLIEIVQSEPFAPIHVRAGA	0.183
HMRMDKHLWLSLLRLINEGSAEELQTKKDELLQSLERLRITRGPVRGDVLRVVRLIDEELVSRLHLDQR	-2.58
HMRMTKPLPFDLAAFRNEFGFTKSIIMQEVGVSRHIYDNVERTNATPPEFYDDFVSFFQRHGQ	-1.88
HMRMTPRQALDDLIREREETYAAVSRLLGRNTAYIQQYIKRGTPARLDQSDIAQLALHFDVPAKLLGGKE	-1.16
HMRMTTEQLMSFLKQHFPQVADNFTVRISDEGRLSVEMPVNDKHLRPGGTVSGPSMFALADVAFYLAILQ	-1.56
HMRNERDRQLYAAMEKLKAEYREALYLVYFENMSYRDAAAVMAQTEKQISNLVYRGKQSLKTILEQEGF	-2.6
HMRNGGHTVYRNNGSLFIVVRDGDKLESVASEFRVSPKKLIKYNDLDIHSNVKTGDMIYIRPKA	-0.423
HMRNLYEILGVSKDAPQGEIKSAYRKLAKTYHPDLNPNNEKAAELFKEINQAYEVLSDETKRRHYDQFGEA	0.342
HMRNMTDYLTIVRAVYGGLSQRQAATTYHVSRNTVSLLIRHAKNQGWLTVEDLSRADAAAFSPA	-0.393
HMRNMVSVLDHIEGIGPKRRQLLYEHYGELEKIKEASVEEMAGLDGMNRPAAEAVYNFFLAQRNL	-0.247

Sequence	soluble fraction (log2)
HMRNSSLQTDLELRAYVIDGLNHFWTPEEIAGRWSLAHPDRPVSFATIYRHIKRKLLPGIEPKTHLRRRGK	-2.54
HMRPEARAASLSDEERKIFDYLAANGEKTIDNISVAVKMSAADILKNITLMSAKGLVYMPSAGRYGVKGN	-0.297
HMRPNREKDMADLEKLAPFLLQMLTNYAQMTGDEKPLNAFITRFGYAAQIRDIQDFFMGPWHPA	≥ 1.04
HMRPQIAIDAIQALSLIMRTENKEDPTYLESRRVVSDAVAKRLSLNPTDLNRAWSRAPRDHQIAVLSALTQ	-1.34
HMRPRGTRLPTGWTPSSDALDWTKAEKPGLDPLQTLEKFRDYWTAQPGQKGVKTDWDATWRNWVRREIP	-0.104
HMRPSGTAGILRYLSSGAIRGIGATTAQRLVSEFGEKTLDVMENEPERVAMLKGISKSKAEDFSLQLKQS	-0.0414
HMRPTAWEQVSRHIDQHGSIGNTEVRKAMETENVLAASKQIKKWLEQGLLIILNPTAGTRARRYSKPNM	-1.19
HMRPTDVLNYDESMRILNFSNNRVGFKHLMDAKGIEQVIFKNRKIGYRKSEILALKSELEAEQK	-0.958
HMRPYAYGTGRRKSSTARVHLIPNGSGSITINGRTLDEYFGLETLKLIVRQPLAATETAEKFDVEATVV	-0.638
HMRQDEKTLLYWIGAQVKREGKLIKTSTAQYLVEKTGTDMENLEKELEKLFAYTLDEKEITPAAIDEI	-1.77
HMRQIRELFRLKFGSLLPTSDRQIAAQLGVARSTVAEYLERARAAGLSWPLPLDLSDADLEERLFA	-3.08
HMRQMSEELQSAKEALEDRRTQEKAVLLLMEHRNISNDEAHRLLRKLAMDQGKRLPEVARALVSMAGVL	-0.319
HMRQSKMREAILAAVSAQKLEISDLHVWRIGEQRYAAIIGLATTQAESVSALRDSLAQMDKLVHLTIDQ	-2.21
HMRQTGWVTADSLNVRARPSLQAERVEKVTYGQQVQIMFKQGQWYQIATENGKIGWVSSEYIAAVSP	-2.4
HMRRELDSEHKRQEILFAAKRLLLAEGYDATSMSRLAKEAGVAPNTLYWYFKDKDELLIAILDELVAE	-2.74
HMRRGKLGMASRLEQIPGIGPKKRKALLKAFGNSIDAIKSAPVEDLMKVKGINLVLAESIKEL	-0.11
HMRRMTEEQSKLFQGLVSIVQTTLVADMEKGAVTPLLIAEKVDFVADNLYPGKDIDRKEAVAELIRRFSLW	-1.67
HMRRSKQERQQAIKTLISNEQIQRQEDLVRKLNEAGWEVTQATISRDITEMQLVKVPLPTGGFAYAVM	-0.0517
HMRRSKVMLESILDEIPQMGQARRAALLEQFGSVAALRKASLAEIAMTPGIGEKIAVIIFEYLQKSSH	-1.69
HMRRTEKEIEQDVMRAIATIISEKGISSVTIKEVSNLSKTDVIVLERRFKNDEGLIKAYTSQ	-1
HMRSFADEGTVEEWIKQAIRENEAAVADYRKGKETAVKFLMGQVMRLSKGEANPADLEDKIKAKLD	0.0142
HMRSFGTVAQARGRWKAFYVGPDKRRHTPGVTFSNPIRAQGWLAQELTLIELGQWTPPAQRREKAEVAS	-2.26
HMRSIVETLTDRELEIFQLIGNGFSTGEIARRLNLSPHTIETHRKNIKDKLGLSSGSELNKQAIQWVLSS	0.244
HMRSKTSYAVWTPIQIDAGSQMQALQSKGFNTVLMEGGISVGIRSDKAQAQALLNRLQGAGFTGQLREVN	-0.173
HMRSLATFEEEKIALRFWNYLQSEGIKSTLEEEGPRDWVIWVIDEEKIPSATQSLEKFNLNPDDPAFSN	-0.784
HMRSLVDRSVQAVTDHIRENALRVGDSLPGEAYFATSLGVSRAVMREAFGALAALRVIDVGNGRKPRVGAI	-0.687

Sequence	soluble fraction (log2)
HMRSMEKRLTAKVKRVQEGVQAKSQAGEQPFEVVKLMQRFPKLMQFGKHAEAETVLDKALELLGEE	-0.0318
HMRSQLALVVRTGESQRLDNFLVNNLAWKSRNRLQGLIREGLVTVNGEKTKASRRVHLDDLVEIHL	-1.31
HMRSTIYEFTVPPGQLESIRLDVYITSFVENATRSKVQEAIKQGYVWVNGKHEKASYTMLPGDKIYIELPI	-2.65
HMRSVEVAAEPGMVLEDRQTGFVGAVVAVEKSGGTHLVVLEDRHGLRRGFPLGPGFWLEGRPVVLAPPP	-1.01
HMRTANREKRIEASVKMMKAGYPVGYIIARVFMYEGWEEDYRQLLIYLSEKIPKDVSNPITFEVIS	-0.622
HMRTEGNLGAKVRVLRRSQGMTQAELARRLGISPSYLNLIEHNRRSFTADLLVKLAKILPVNLKT	-2.5
HMRTITYSITPAHAGMSVERYLKQQHGYSTRTLVKLKHYPQGLQLNGQHARTVDLLQAGDTLAVTFLD	-2.42
HMRTLSAGVAGRLRADILNGLLEPGRRLGMAELTERYGAGMSPVREALSRLVGEGLVQSEGQRGFRVA	-0.446
HMRTMFGQRLRLARKRAGLSMQALADRVTPSVSAQAISKYEADQMMPSSSVLVGLGKALGVSLDFLVGGQ	-1.41
HMRTNVDISPKILEWVLSQVRNRTTNDVIETIQIWIKGEKPPTFNQVEKISKATGVPLGYFFLKTPPVED	-1.34
HMRTPLTGREEQVATLIGRGMTNSEIAESLSVDESTVKTHIGSILRKVHLRDRLQVALWFHGLPIE	-0.67
HMRTTYKTRLETLLAGPMSAGDRRFASSLLDFYNRKNRLTPGRARFVAQLEDRYSAEALAARQG	-1.19
HMRTVEQFQIRKIYAISNALGISDSRADEDELHVLVSGLTGKDSIKELTYREASVVIERLEELQ	-2.22
HMRVDDITDTILNVLKEQGGFISVTDKSSPETINKLFGVSKKTYKKAIGAIYRKKLIIIEDDGIRLNS	-2.4
HMRVDRSALDSIPGVGPGRKRTLLHHFGSARAVEASGLADLESIRGISKALARKIYDFFHPE	-1.55
HMRVELVVVPELRQQLLPEARELANSAGLQLRVRGQSPADETRTIVVTQSPAAGTRVAARSIVLVE	-1.12
HMRVPTVIGMDEGTAKATLANASLKSNIVYESDETKENGKVLSQGIEQNKEVKAGTTVEIKVNKIE	0.116
HMRVTEVSYDKFLDMLSGGQVTVVELQENERELYFKAADENGAERIYSTGVFPDADLQKRLSESGVTF	-0.14
HMRYLHTMIRVSDLEESLNFFKLLDIHEVSRKENEQARFTLVFLSATGDEKLVENAKSPLIELTFN	-0.0509
HMRYLMPDLVNRRYEPVRSLLEARGIRFGNVIFEPYEGLPPGIVLRQDPPAGHPLPRRRTVSLVVSGPGGR	-2.56
HMRYQIAEARKLRDITQAELAEKMGTTQQTIQRYETNQVNIRMDKMIEMSEILNVSLAYLLGMSSSPEL	-1.78
HMRYVVQVATFSSKNNAIRAADDLAGFVVVSNGYYRVRTGPYADRGEANAALAKARKAGYTDAFVDTS	-2.19
HMSAAYVYVTGTRVNQRDGPSTFDRVMGVLVEGTRVQLLRDQGQWAQIRSDLGTGWLSSGFLSRNG	-1.88
HMSADKAEAAEASLKSFNLRLQAAAMEAGKTFAPVTADQYAEYKAAWGTYIRKGIEGLSESEKKTINVG	-0.243
HMSAETREELVGREGVSLTDLRPSGFALFGQEKIDVVSESEFIEEGTSVRIVSVEGSRHIVRAKR	-0.0724
